In PMC10244618:
Where “and” joins values, the source holds several entries; their conditions need not be identical. Identical values can stand only once.

B1: NF2 (merlin) isoform 7, human, full length (507 aa, lacks exons 2-3 = isoform-1 residues 39-121; exon-16 C-terminus), P35240-4 (parent)
chain: MAGAIASRMSFSSLKRKQPKTFTVRIVTMDAEMEFNCEVKKQILDEKIYCPPEASVLLASYAVQAKYGDYDPSVHKRGFLAQEELLPKRVINLYQMTPEMWEERITAWYAEHRGRARDEAEMEYLKIAQDLEMYGVNYFAIRNKKGTELLLGVDALGLHIYDPENRLTPKISFPWNEIRNISYSDKEFTIKPLDKKIDVFKFNSSKLRVNKLILQLCIGNHDLFMRRRKADSLEVQQMKAQAREEKARKQMERQRLAREKQMREEAERTRDELERRLLQMKEEATMANEALMRSEETADLLAEKAQITEEEAKLLAQKAAEAEQEMQRIKATAIRTEEEKRLMEQKVLEAEVLALKMAEESERRAKEADQLKQDLQEAREAERRAKQKLLEIATKPTYPPMNPIPAPLPPDIPSFNLIGDSLSFDFKDTDMKRLSMEIEKEKVEYMEKSKHLQEQLNELKTEIEALKLKERETALDILHNENSDRGGSSKHNTIKKPQAQGRRPICI

Variants of: B1
Test: reverse yeast two-hybrid deep mutational scan (rY2H-seq): NF2 isoform 7 mutant library as bait mated with wild-type prey strains; selection on medium lacking adenine for non-interacting pairs; NextSeq paired-end sequencing; enrichment vs …
Conditions: with NF2 C-terminal domain (wild type; homomeric NF2-NF2 interaction), P35240; yeast diploids after mating (RBait_S3 x RPrey_S3), 30 °C, selection for reporter genes on NB agar; human ABL2 co-expressed as the kinase-dead K35M mutant …; HIGHER = WEAKER BINDING (the opposite of display enrichments): higher = stronger loss of interaction: reverse Y2H selects yeast in which bait and prey do NOT interact (growth without adenine), so a …; hits-only table; partner unresolved; scale: rY2H score; numbering: uniprot, sequence starts at 1

| Variant | enrichment |
| --- | --- |
| L466C | 1.55 |
| L353K | 3.06 |
| A499G | 1.7 |
| N137Q | 1.42 |
| D118K | 4.21 |
| A358E | 2.37 |
| A358K | 3.8 |
| L408C | 1.37 |
| H491L | 2.51 |
| A302K | 1.89 |
| E132K | 5.61 |
| E132L | 1.84 |
| S73P | 2.96 |
| D411L | 3.15 |
| I160K | 1.71 and 3.21 |
| I160A | 1.61 |
| I105C | 1.42 and 1.58 |
| A406L | 10 |
| L390A | 2.28 |
| L301A | 1.81 |
| A266L | 3.08 |
| F415E | 2.37 |
| H159A | 2.04 |

| Variant | enrichment |
| --- | --- |
| K395S | 2.15 |
| L348A | 4.71 |
| E380K | 3.26 |
| S423L | 2.58 |
| R363L | 2.55 |
| A140G | 1.75 |
| K496S | 1.44 |
| R293K | 7.18 |
| E321A | 1.62 |
| S489K | 2.15 |
| L291E | 2.16 |
| N482A | 3.43 |
| N482E | 1.99 |
| N482T | 2.43 |
| T297L | 3.13 |
| L156K | 2.02 |
| A378L | 2.15 |
| K126L | 1.8 and 2.78 |
| A287E | 3.57 and 6.74 |
| K260A | 2.49 |
| M357A | 1.97 and 1.82 |
| R113G | 1.5 |
| L315R | 1.62 |

| Variant | enrichment |
| --- | --- |
| L417T | 2.32 |
| E309K | 1.83 |
| D69L | 1.7 |
| N288A | 1.84 |
| P163E | 2.31 |
| N143M | 1.65 and 1.37 |
| Q376A | 5.78 |
| Q261E | 1.7 |
| L475K | 4.06 |
| P413K | 1.53 |
| L167K | 1.57 |
| E245A | 1.58 |
| E245K | 3.75 |
| S421K | 2.24 |
| T336D | 3.64 |
| Y61K | 1.84 |
| Y61A | 6.2 |
| Q64M | 5.81 |
| E83K | 18.2 |
| M238A | 4.02 |
| R248L | 2.23 |
| F424E | 27.7 |
| A312K | 2.34 |

| Variant | enrichment |
| --- | --- |
| M262D | 6.41 |
| S483K | 2.55 |
| P19E | 3.9 |
| D476G | 1.92 |
| Q236A | 2.27 |
| V27L | 2.04 |
| F139E | 20.1 |
| E377L | 1.63 |
| Q373K | 1.92 |
| N457E | 2.32 |
| D374A | 1.98 |
| Y70H | 1.43 |
| L434R | 1.58 |
| A298E | 2.55 and 1.66 |
| H479A | 4.46 |
| M133E | 2.45 |
| E310L | 1.51 |
| T394K | 1.65 |
| T394R | 3.98 |
| L158G | 1.55 |
| P399S | 3.98 |

Same assay, conditions: with PIK3R3 (phosphatidylinositol 3-kinase regulatory subunit gamma), Q92569; yeast diploids after mating (RBait_S3 x RPrey_S3), 30 °C, selection for reporter genes on NB agar; human tyrosine kinase ABL2 co-expressed as the active kinase …; HIGHER = WEAKER BINDING (the opposite of display enrichments): higher = stronger loss of interaction: reverse Y2H selects yeast in which bait and prey do NOT interact (growth without adenine), so a …; hits-only table; scale: rY2H score; numbering: uniprot, sequence starts at 1

| Variant | enrichment |
| --- | --- |
| E339G | 2.91 |
| L353P | 1.53 |
| A155C | 1.8 and 1.98 |
| A155T | 2.16 |
| P52A | 1.76 |
| N137R | 2.63 |
| T493A | 2.62 |
| S73A | 4.51 |
| I141C | 1.42 |
| K346N | 2.36 |
| L216P | 3.07 |
| I329A | 1.64 |
| V24A | 2.39 |
| F415E | 1.83 |
| A368L | 2.18 |
| G501C | 1.45 |
| L348A | 2.29 |
| A316E | 2.22 and 3.1 |
| Q498E | 1.97 |
| A140V | 2.13 |
| E321L | 3.49 |
| K460L | 10.6 |
| R89G | 1.41 |
| D194N | 1.96 |
| T297L | 1.67 |

| Variant | enrichment |
| --- | --- |
| D484E | 2.39 |
| A365G | 2.6 |
| A365K | 2.58 |
| A287E | 2.8 |
| M225I | 2.15 |
| L207G | 1.42 |
| M357E | 2.86 |
| E309K | 3.02 |
| A59V | 2.52 |
| D71T | 11.1 |
| S294F | 2.27 |
| S294V | 1.71 |
| L212P | 2.57 |
| A62K | 2.93 |
| P396K | 4.88 |
| G68V | 7.34 |
| L149P | 2.48 |
| N176M | 1.43 |
| L14P | 3.46 |
| R166C | 1.57 |
| R166K | 2.44 |
| T336E | 3.42 |
| E234K | 1.73 |
| V63K | 2 |
| G146R | 1.52 |

| Variant | enrichment |
| --- | --- |
| S55K | 35.5 |
| A312K | 2 |
| R364A | 2.87 |
| M262D | 15.7 |
| V352K | 2.67 |
| K388E | 3.32 |
| M280I | 2.64 |
| M401Q | 2.91 |
| M401E | 2.14 |
| M401K | 2.17 |
| T147A | 5.43 |
| R485K | 6.26 |
| G486S | 2.29 |
| R253Q | 1.57 |
| E458L | 13.6 |
| V56L | 1.92 |
| M133I | 2.1 |
| T394S | 1.98 |
| T394A | 2.14 |
| I171L | 1.51 |
| F173P | 13 |
| F173T | 11 |
| K191S | 2.28 |
| N402E | 1.42 |

Same assay, conditions: with KDM1A (lysine-specific histone demethylase 1A; the table's label AOF2 is a gene synonym of KDM1A), O60341; yeast diploids after mating (RBait_S3 x RPrey_S3), 30 °C, selection for reporter genes on NB agar; human tyrosine kinase ABL2 co-expressed as the active kinase …; HIGHER = WEAKER BINDING (the opposite of display enrichments): higher = stronger loss of interaction: reverse Y2H selects yeast in which bait and prey do NOT interact (growth without adenine), so a …; hits-only table; scale: rY2H score; numbering: uniprot, sequence starts at 1

| Variant | enrichment |
| --- | --- |
| R328L | 2.21 |
| A155C | 1.93 |
| N137R | 2.21 |
| P504R | 1.85 |
| K304A | 3.58 |
| K304P | 1.4 |
| A54V | 3.45 |
| H221Y | 2.24 |
| E311K | 1.67 and 1.4 |
| D411A | 2.4 and 1.53 |
| Q306H | 1.79 |
| I160K | 3.84 and 4.07 |
| I105C | 1.42 |
| L390E | 2 |
| L301A | 2 |
| R335L | 3.71 |
| R335S | 1.9 |
| I329A | 1.81 |
| G419E | 4.86 |
| F200S | 3.89 |
| H159A | 1.39 |
| A333E | 2.04 |

| Variant | enrichment |
| --- | --- |
| E444K | 1.5 |
| R363L | 1.9 |
| D428N | 1.87 |
| A316E | 2.69 |
| A140G | 1.91 |
| E321L | 3.26 |
| E148A | 1.62 and 1.74 |
| S489L | 2.43 |
| D130A | 1.54 |
| L57A | 3.5 |
| R89K | 1.9 |
| M286A | 1.89 |
| I412H | 6.45 |
| K330L | 2.59 |
| K126E | 22.9 |
| M96I | 1.63 |
| M96V | 1.61 |
| R341A | 8.79 |
| A365K | 2 |
| M446I | 1.99 |
| M225K | 43 |
| Y398K | 2.43 |

| Variant | enrichment |
| --- | --- |
| E309K | 1.97 |
| D198G | 2.28 |
| P163E | 4.05 |
| A59V | 1.61 |
| E391R | 2.32 |
| N143M | 2.18 |
| Q82D | 1.58 |
| P396S | 1.47 |
| E121A | 1.59 |
| E245Y | 1.47 |
| S421K | 2.61 |
| R243K | 1.55 |
| Q64P | 6.87 |
| Q64K | 2.38 |
| S55F | 3.58 |
| R364A | 4.28 and 3.15 |
| M262D | 5.37 |
| E349P | 2.41 |
| I127E | 11.8 |
| T308I | 2.84 |
| E38K | 1.85 |
| M401E | 1.62 |

| Variant | enrichment |
| --- | --- |
| M401K | 1.99 and 1.77 |
| K356E | 1.91 |
| K356A | 2 |
| Q500K | 1.42 |
| L355P | 1.79 |
| I418A | 1.5 |
| R253Q | 1.48 |
| P407A | 2.33 |
| P407L | 1.77 and 2.01 |
| V56L | 1.8 |
| L434R | 1.37 |
| M133E | 21.9 |
| A65V | 1.9 |
| T394A | 1.4 |
| T397I | 4.78 |
| D299E | 1.51 |
| D162Y | 2.15 |
| N402E | 1.73 |
| I404D | 7.96 |

Same assay, conditions: with KDM1A (lysine-specific histone demethylase 1A; the table's label AOF2 is a gene synonym of KDM1A), O60341; yeast diploids after mating (RBait_S3 x RPrey_S3), 30 °C, selection for reporter genes on NB agar; human ABL2 co-expressed as the kinase-dead K35M mutant …; HIGHER = WEAKER BINDING (the opposite of display enrichments): higher = stronger loss of interaction: reverse Y2H selects yeast in which bait and prey do NOT interact (growth without adenine), so a …; hits-only table; scale: rY2H score; numbering: uniprot, sequence starts at 1

| Variant | enrichment |
| --- | --- |
| P504R | 2 |
| N492E | 1.69 |
| G501C | 1.59 |
| Q498L | 1.65 |
| K460L | 4.85 |
| N482L | 2.71 |
| N482T | 2.3 |
| R471A | 3.18 |
| E472A | 3.64 |
| C506S | 1.49 |
| D476E | 2.39 |
| Q500L | 19.6 |
| N457T | 2.31 |
| N457S | 3.38 |
| G486D | 1.52 |
| L434R | 1.73 |
